Results from patent US9446124B2, “Targeting of bone marrow neovasculature” (Philogen S.P.A., priority 2009, dated 2016).
“Also recorded” adds a separate entry of the source.

B1: 4A1-F16-SIP: human monoclonal mini-immunoglobulin specific to the A1 domain of tenascin-C; sequence SEQ ID NO:25 (protein)
chain: EVQLLESGGGLVQPGGSLRLSCAASGFTFSRYGMSWVRQAPGKGLEWVSAISGSGGSTYYADSVKGRFTISRDNSKNTLYLQMNSLRAEDTAVYYCAKAHNAFDYWGQGTLVTVSRGGGSGGGSGGSSELTQDPAVSVALGQTVRITCQGDSLRSYYASWYQQKPGQAPVLVIYGKNNRPSGIPDRFSGSSSGNTASLTITGAQAEDEADYYCNSSVYTMPPVVFGGGTKLTVLSGGSGGPRAAPEVYAFATPEWPGSRDKRTLACLIQNFMPEDISVQWLHNEVQLPDARHSTTQPRKTKGSGFFVFSRLEVTRAEWEQKDEFICRAVHEAASPSQTVQRAVSVNPESSRRGGC
modifications: Synthetic sequence 4A1-F16-SIP amino acid sequence
B2: F8-SIP (V5L/K18R): human monoclonal mini-immunoglobulin specific to the alternatively spliced EDA domain of fibronectin; sequence SEQ ID NO:26 (protein)
chain: EVQLLESGGGLVQPGGSLRLSCAASGFTFSLFTMSWVRQAPGKGLEWVSAISGSGGSTYYADSVKGRFTISRDNSKNTLYLQMNSLRAEDTAVYYCAKSTHLYLFDYWGQGTLVTVSSGGGGSGGGSGGGGGEIVLTQSPGTLSLSPGERATLSCRASQSVSMPFLAWYQQKPGQAPRLLIYGASSRATGIPDRFSGSGSGTDFTLTISRLEPEDFAVYYCQQMRGRPPTFGQGTKVEIKSGGSGGPRAAPEVYAFATPEWPGSRDKRTLACLIQNFMPEDISVQWLHNEVQLPDARHSTTQPRKTKGSGFFVFSRLEVTRAEWEQKDEFICRAVHEAASPSQTVQRAVSVNPESSRRGGC
modifications: Synthetic sequence F8-SIP (V5L/K18R) amino acid sequence

Assays:
[1] = tested on: target tumour cells and endothelial cells; details: acts on microtubuli; literature references; cited from earlier work
[2] = tested on: blood vessels in the bone marrow of AML patients; test: Immunohistochemistry of bone marrow biopsies from AML patients; assay type: binding, human; details: biotinylated antibody in SIP format, 2 μg/ml, frozen 10 μm sections; FIG. 2
Method: (§1) Immunohistochemistry and immunofluorescence analysis were performed on freshly frozen bone marrow biopsies of patients with acute myeloid leukaemia.
(§2) For immunohistochemistry, biotinylated antibodies were used in small immunoprotein format (SIP) under identical conditions (2 μg/ml). Aliquots were prepared from a single batch of antibodies, frozen and used only once to ensure reproducibility of immunohistochemical stainings. Frozen tissue samples were stored at −80° C. Sections of 10 μm thickness were fixed in chilled acetone, rehydrated in TBS buffer (50 mM Tris, 100 mM NaCl, 0.001% Aprotinin, pH 7.4) and blocked with 20% fetal calf serum in TBS. The antibodies were added onto the sections in a final concentration of 2 μg/mL in 3% bovine serum albumin (BSA)/TBS solution and incubated for one hour. After washing in TBS, bound antibodies were detected with streptavidin-biotinylated alkaline phosphatase complex (Biospa, Milan, Italy) in TBS 3% BSA+2 mM MgCl2. The Fast Red substrate (Sigma) was used for detection of phosphatase activity. Sections were counterstained with Gill's hematoxylin No. 2 (Sigma) and mounted with Glycergel mounting medium (Dako, Glostrup, Denmark).

[3] = tested on: blood vessels present in the bone marrow biopsies of patients with extramedullary AML; test: Immunohistochemistry of bone marrow biopsies from patients with extramedullary AML; assay type: binding, human; details: biotinylated antibody in SIP format, 2 μg/ml; two patients; FIG. 3
Method: as §1, §2

[4] = tested on: areas of bone marrow from AML patients with high blast densities; test: Multicolour immunofluorescence of AML bone marrow (co-localization with vWF); assay type: binding, human; details: biotinylated SIP, 2 μg/mL
Method: Biotinylated antibodies were used in small immunoprotein format (SIP) under identical conditions (2 μg/ml). Aliquots were prepared from a single batch of antibodies, frozen and used only once to ensure reproducibility of immunohistochemical stainings.
Sections of 10 μm thickness were fixed in chilled acetone and blocked with 20% fetal calf serum in PBS. Biotinylated F8-SIP (V5L/K18R) and 4A1-F16-SIP were added onto the sections in a final concentration of 2 μg/mL in 3% bovine serum albumin (BSA)/PBS solution and incubated for one hour. Mouse anti-human vWF (von Willebrandt factor) was used to outline endothelial cells. After washing in PBS, bound primary antibodies were detected with Streptavidin-Alexa Fluor 488 and anti-mouse IgG Alexa Fluor 594 (Invitrogen) were used as secondary antibodies. Nuclei were counterstained with DAPI and images were captured on an Axioskop 2 Mot plus microscope equipped with an AxioCam MRc camera (Zeiss). Human

[5] = tested on: vessels of HL-60 tumour (granulocytic sarcoma) sections; test: Immunohistochemistry of HL-60 tumours from human leukaemia mouse model; assay type: binding; details: biotinylated SIP, 2 μg/ml, HL-60 xenograft in nude mice, FIG. 4A
Method: as §2
The mouse model for human leukaemia used here was previously described in Potter et al. (1984). Specifically, nude mice were xenografted with cells from the HL-60 leukaemia cell line and, after development of HL-60 tumours (granulocytic sarcomas), samples were obtained both from said tumours and from the bone marrow of the mice.
Immunohistochemistry studies were then performed as described under “immunohistochemistry” above.

healthy bone marrow = test: Immunohistochemistry of healthy bone marrow from HL-60 xenografted mice; assay type: binding, nude mice; details: biotinylated SIP, 2 μg/ml; bone marrow of the same HL-60 xenografted mice; FIG. 4B
Method: as §2
The mouse model for human leukaemia used here was previously described in Potter et al. (1984). Specifically, nude mice were xenografted with cells from the HL-60 leukaemia cell line and, after development of HL-60 tumours (granulocytic sarcomas), samples were obtained both from said tumours and from the bone marrow of the mice. […]

| Molecule | concentration range capable of killing target tumour cells and endothelial cells [1] | staining of blood vessels in bone marrow biopsies of AML patients [2] | staining of blood vessels in bone marrow biopsies of extramedullary AML patients [3] | co-localization with antibodies specific for von Willebrand Factor (vWF) [4] | staining of vessels in HL-60 tumour sections [5] | staining of vessels in HL-60 tumour sections ([5]; listed as 4A1-F16 SIP) | staining of healthy bone marrow sections (healthy bone marrow) |
| --- | --- | --- | --- | --- | --- | --- | --- |
| CC[C@]1(O)C[C@H]2CN(CCc3c([nH]c4ccccc34)[C@@](C(=O)OC)(c3cc4c(cc3OC)N(C)[C@H]3[C@@](O)(C(=O)NN)[C@H](O)[C@]5(CC)C=CCN6CC[C@]43[C@@H]65)C2)C1 [4-desacetyl-3-vinblastine monohydrazide] | picomolar concentration range |  |  |  |  |  |  |
| cemadotin | picomolar concentration range |  |  |  |  |  |  |
| B1 |  | strongly stained the blood vessels present in the bone marrow biopsy; also recorded: capable of staining the vast majority of blood vessels | strongly stained the blood vessels present in the bone marrow biopsies in both cases | excellent co-localization | strongly stained the vessels of the HL-60 tumour sections | strongly stained the vessels present in the HL-60 tumour (granulocytic sarcoma) sections | no staining was visible |
| B2 |  | also visible, although the level of staining was weaker than that observed with 4A1-F16-SIP; also recorded: stained a large proportion of these blood vessels but fewer than observed with the 4A1-F16-SIP antibody | also visible and was either similar or slightly weaker than the level of staining observed with 4A1-F16-SIP |  | strongly stained the vessels of the HL-60 tumour sections; also recorded: strongly stained the vessels present in the HL-60 tumour (granulocytic sarcoma) sections |  | no staining was visible |
